B1: Cytochrome b-245 light chain (Homo sapiens), P13498 (parent)
chain: MGQIEWAMWANEQALASGLILITGGIVATAGRFTQWYFGAYSIVAGVFVCLLEYPRGKRKKGSTMERWGQKYMTAVVKLFGPFTRNYYVRAVLHLLLSVPAGFLLATILGTACLAIASGIYLLAAVRGEQWTPIEPKPRERPQIGGTIKQPPSNPPPRPPAEARKKPSEEEAAVAAGGPPGGPQVNPIPVTDEVV
partner: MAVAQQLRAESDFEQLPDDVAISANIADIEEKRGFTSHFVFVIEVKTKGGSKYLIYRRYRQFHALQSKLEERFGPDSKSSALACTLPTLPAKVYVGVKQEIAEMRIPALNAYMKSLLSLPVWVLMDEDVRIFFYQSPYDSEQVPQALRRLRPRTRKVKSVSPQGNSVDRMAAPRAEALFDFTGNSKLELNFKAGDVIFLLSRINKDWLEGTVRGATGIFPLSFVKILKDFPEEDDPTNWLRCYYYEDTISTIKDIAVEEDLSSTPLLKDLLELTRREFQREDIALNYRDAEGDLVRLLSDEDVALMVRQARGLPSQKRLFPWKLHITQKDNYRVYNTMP
B2: Neutrophil cytosol factor 4 (Homo sapiens), Q15080 (parent)
chain: B1 partner
partner: B1 chain
B3: Cytochrome b-245 light chain (Homo sapiens), P13498 (parent)
chain: B1 chain

One experiment covers variants of B1. Particulars: with ncf4_human NCF4, Q15080.
On to MGQIEWAMWANEQALASGLILITGGIVATAGRFTQWYFGAYSIVAGVFVCLLEYPRGKRKKGSTMERWGQKYMTAVVKLFGPFTRNYYVRAVLHLLLSVPAGFLLATILGTACLAIASGIYLLAAVRGEQWTPIEPKPRERPQIGGTIKQPPSNPQPRPPAEARKKPSEEEAAVAAGGPPGGPQVNPIPVTDEVV [P156Q], for which the “effect of a mutation on the interaction” value was “decreasing interaction”.

The variants in the next experiment derive from B2. The settings on record: with cy24a_human CYBA.
On to MAVAQQLRAESDFEQLPDDVAISANIADIEEKRGFTSHFVFVIEVKTKGGSKYLIYRRYRQFHALQSKLEERFGPDSKSSALACTLPTLPAKVYVGVKQEIAEMRIPALNAYMKSLLSLPVWVLMDEDVRIFFYQSPYDSEQVPQALRRLRPRTRKVKSVSPQGNSVDRMAAPRAEALFDFTGNSKLELNFKAGDVIFLLSRINKDRLEGTVRGATGIFPLSFVKILKDFPEEDDPTNWLRCYYYEDTISTIKDIAVEEDLSSTPLLKDLLELTRREFQREDIALNYRDAEGDLVRLLSDEDVALMVRQARGLPSQKRLFPWKLHITQKDNYRVYNTMP [W207R], for which the “effect of a mutation on the interaction” value is listed as “decreasing interaction”.

The next experiment covers variants of B3. Particulars: with ncf1_human NCF1, P14598.
Sequence of ncf1_human NCF1, P14598 (P14598 whole entry): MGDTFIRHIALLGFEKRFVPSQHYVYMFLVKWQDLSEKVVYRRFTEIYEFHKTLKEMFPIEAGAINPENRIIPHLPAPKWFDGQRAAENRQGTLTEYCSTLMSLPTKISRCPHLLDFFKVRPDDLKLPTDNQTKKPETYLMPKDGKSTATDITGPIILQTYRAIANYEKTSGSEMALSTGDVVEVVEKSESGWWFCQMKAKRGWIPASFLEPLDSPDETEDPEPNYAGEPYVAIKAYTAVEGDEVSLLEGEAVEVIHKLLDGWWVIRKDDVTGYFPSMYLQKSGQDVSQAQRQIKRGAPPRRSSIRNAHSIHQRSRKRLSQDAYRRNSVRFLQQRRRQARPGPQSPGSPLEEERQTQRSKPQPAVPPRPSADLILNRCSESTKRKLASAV
On to MGQIEWAMWANEQALASGLILITGGIVATAGRFTQWYFGAYSIVAGVFVCLLEYPRGKRKKGSTMERWGQKYMTAVVKLFGPFTRNYYVRAVLHLLLSVPAGFLLATILGTACLAIASGIYLLAAVRGEQWTPIEPKPRERPQIGGTIKQPPSNPQPRPPAEARKKPSEEEAAVAAGGPPGGPQVNPIPVTDEVV [P156Q], for which the “effect of a mutation on the interaction” value was “decreasing interaction”.

These data come from IntAct's records for PubMed 17803994.
